Experimental data: patent publication US20120196804A1 (INDIANA UNIVERSITY RESEARCH AND TECHNOLOGY, published 2012)

Legend:
glucagon receptor = assay: cell-based or functional assay
GLP-1 receptor = assay: cell-based or functional assay

| Binder | cAMP Induction, EC50 (luciferase reporter, HEK293) (glucagon receptor) [nM] | cAMP Induction, EC50 (luciferase reporter, HEK293) (GLP-1 receptor) [nM] |
| --- | --- | --- |
| HSQGTFTSDYSKYLDSRRAQDFVQWLMNTKRNR [Oxyntomodulin KRNR] | 2.77 | 3.21 |
| HSQGTFTSDYSKYLDSRRAQDFVQWLMNTGPSSGAPPPS (C-terminal amide) [Glucagon-Cex] | 0.25 | 2.75 |
| HSQGTFTSDYSRYLDSRRAQDFVQWLMNK [Glucagon R12 K29] | 0.81 | 0.41 |
